{"source": "patent US20220332804A1", "about": "(CSL INNOVATION, published 2022)", "test_in_all_cases": "SPR, antibody captured, C2 as analyte;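 note: biacore at 37 °C, anti-C2 mAbs held by immobilised goat anti-human IgG, C2 alanine or serine mutants injected, double-referenced sensorgrams fitted to a 1:1 kinetic or steady-state model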", "key": {"[1]": {"target": "T1, human C2 K443A (human, UniProt P06681 21-752)", "T1 sequence": "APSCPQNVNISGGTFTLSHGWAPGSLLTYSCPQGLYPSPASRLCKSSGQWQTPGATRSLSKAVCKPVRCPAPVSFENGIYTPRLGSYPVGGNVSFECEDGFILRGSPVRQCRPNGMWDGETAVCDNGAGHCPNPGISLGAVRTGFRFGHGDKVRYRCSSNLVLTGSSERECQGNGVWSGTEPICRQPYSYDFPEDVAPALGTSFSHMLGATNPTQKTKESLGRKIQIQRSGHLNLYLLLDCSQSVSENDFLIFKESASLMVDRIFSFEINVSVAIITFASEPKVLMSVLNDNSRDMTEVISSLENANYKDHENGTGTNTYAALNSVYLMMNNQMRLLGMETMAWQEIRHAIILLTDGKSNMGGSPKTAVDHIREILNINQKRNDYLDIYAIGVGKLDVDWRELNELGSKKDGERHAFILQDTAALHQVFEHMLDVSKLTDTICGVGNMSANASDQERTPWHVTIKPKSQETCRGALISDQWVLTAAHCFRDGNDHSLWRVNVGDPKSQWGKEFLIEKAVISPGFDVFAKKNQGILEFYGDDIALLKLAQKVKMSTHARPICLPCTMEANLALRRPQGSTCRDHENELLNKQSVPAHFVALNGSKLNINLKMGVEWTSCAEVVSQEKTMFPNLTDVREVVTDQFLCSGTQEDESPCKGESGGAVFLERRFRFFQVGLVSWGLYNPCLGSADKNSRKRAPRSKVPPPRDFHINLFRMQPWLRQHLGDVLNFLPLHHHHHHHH"}, "[2]": {"target": "T2, human C2 D404A (human, UniProt P06681 21-752)", "T2 sequence": "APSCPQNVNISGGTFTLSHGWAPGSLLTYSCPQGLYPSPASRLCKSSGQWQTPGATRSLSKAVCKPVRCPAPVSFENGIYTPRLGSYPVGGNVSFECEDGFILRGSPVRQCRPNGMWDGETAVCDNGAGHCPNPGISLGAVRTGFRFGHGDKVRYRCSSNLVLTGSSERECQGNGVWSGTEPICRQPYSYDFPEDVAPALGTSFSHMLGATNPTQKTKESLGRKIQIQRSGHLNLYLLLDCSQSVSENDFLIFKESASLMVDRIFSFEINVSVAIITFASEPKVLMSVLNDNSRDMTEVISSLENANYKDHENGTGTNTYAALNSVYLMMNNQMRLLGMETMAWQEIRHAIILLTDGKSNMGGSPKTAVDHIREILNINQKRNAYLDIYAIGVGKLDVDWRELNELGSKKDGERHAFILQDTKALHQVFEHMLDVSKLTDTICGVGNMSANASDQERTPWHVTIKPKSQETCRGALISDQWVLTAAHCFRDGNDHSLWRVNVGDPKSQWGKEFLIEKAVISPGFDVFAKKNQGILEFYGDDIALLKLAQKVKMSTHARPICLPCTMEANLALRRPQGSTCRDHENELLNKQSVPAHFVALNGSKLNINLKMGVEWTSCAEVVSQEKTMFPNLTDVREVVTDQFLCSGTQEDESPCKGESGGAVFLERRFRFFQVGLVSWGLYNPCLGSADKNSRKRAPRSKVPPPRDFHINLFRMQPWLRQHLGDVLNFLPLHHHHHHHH"}, "[3]": {"target": "T3, human C2 K329A (human, UniProt P06681 21-752)", "T3 sequence": "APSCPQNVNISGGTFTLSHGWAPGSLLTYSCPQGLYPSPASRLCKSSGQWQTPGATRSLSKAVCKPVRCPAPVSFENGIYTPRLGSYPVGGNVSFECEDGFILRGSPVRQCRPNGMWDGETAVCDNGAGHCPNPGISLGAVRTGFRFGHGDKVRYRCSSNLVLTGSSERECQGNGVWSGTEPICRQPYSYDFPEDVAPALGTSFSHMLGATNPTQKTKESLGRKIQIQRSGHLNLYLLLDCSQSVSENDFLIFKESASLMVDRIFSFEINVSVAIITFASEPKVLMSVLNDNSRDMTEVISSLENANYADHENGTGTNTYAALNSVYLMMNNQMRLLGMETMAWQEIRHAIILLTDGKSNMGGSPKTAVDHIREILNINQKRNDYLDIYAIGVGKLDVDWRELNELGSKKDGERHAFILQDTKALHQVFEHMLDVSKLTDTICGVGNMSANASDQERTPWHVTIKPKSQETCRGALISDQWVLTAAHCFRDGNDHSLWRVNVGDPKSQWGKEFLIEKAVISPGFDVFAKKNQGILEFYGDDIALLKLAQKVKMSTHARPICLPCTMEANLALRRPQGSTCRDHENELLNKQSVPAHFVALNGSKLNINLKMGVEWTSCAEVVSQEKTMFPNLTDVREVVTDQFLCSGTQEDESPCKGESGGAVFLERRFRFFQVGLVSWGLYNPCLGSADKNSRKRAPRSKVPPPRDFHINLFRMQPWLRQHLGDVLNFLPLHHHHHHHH"}, "[4]": {"target": "T4, human C2 E324A (human, UniProt P06681 21-752)", "T4 sequence": "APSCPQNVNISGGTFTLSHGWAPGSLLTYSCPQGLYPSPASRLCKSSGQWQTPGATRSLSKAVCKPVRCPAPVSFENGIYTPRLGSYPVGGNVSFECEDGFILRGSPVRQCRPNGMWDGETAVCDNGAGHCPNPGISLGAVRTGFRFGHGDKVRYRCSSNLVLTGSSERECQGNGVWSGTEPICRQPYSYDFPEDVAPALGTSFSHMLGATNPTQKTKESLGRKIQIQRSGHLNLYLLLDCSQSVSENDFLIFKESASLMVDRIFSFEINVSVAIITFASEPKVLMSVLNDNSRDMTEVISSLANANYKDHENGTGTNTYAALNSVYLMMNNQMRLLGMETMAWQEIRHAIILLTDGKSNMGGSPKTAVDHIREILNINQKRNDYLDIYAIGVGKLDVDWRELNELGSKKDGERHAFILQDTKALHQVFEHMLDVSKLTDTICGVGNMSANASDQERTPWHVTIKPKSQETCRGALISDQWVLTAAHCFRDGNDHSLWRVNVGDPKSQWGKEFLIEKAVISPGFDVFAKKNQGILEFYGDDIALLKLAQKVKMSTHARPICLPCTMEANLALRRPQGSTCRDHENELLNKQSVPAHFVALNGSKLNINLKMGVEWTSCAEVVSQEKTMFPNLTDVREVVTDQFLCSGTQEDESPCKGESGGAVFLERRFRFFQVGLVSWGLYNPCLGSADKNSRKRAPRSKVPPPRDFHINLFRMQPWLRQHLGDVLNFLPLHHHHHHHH"}}, "data": [{"binder": "RF16-242 (antibody, human IgG4 S228P, lambda, V domains shown, pH-dependent anti-C2 antibody from a phage display library) VH: EVQLLQSGAEVKKPGESLKISCKGSGYSFTSYWIGWVRQMPGKGLEWMGIIYPGDSDTRYSPSFQGQVTISADKSISTAYLQWSSLKASDTAMYYCARRGHYGDYFDYWGQGTLVTVSS VL: SYELTQPPSVSVSPGQTARITCSGDALPKKYAYWYHQKSGQAPVLVIYEDRRRPSEIPERFSGSSSGTMATLTITGAQVEDEGVYFCYSRDRAGNQRVFGGGTQLTVLG", "values": [{"measurement": "binding result", "setting": "[1]", "value": "no binding"}, {"measurement": "Kd", "setting": "[2]", "value": 16.4, "unit": "nM"}, {"measurement": "Kd", "setting": "[3]", "value": 14.8, "unit": "nM"}, {"measurement": "Kd", "setting": "[4]", "value": 10.7, "unit": "nM"}]}]}
